Test results reported in patent US20150307603A1 (MODIQUEST B V, published 2015).
Non-standard residues stand in square brackets, D forms with d. No end group written: not given here. Cit = NC(=O)NCCC[C@H](N)C(=O)O

Columns and labels:
[1] = target: T1, peptide no. 7 (human histone 2A) (human, also: biotin-labelled); test: ELISA, Ab 0.0032 ug/well
T1 construct: also called peptide 7
T1 peptide: GNYSE[Cit]VGAGAP
Protocol: (§1) Biotin and citrulline-containing peptides derived from histone 2A were immobilized on NEUTRAVIDIN®-coated 96-well ELISA plates (0.3 μg/well). CFC-1 and CFC-0 were coated at the same concentration and served as positive and negative controls, respectively, for specific anti-citrulline reactivity and as coating controls. Non-coated wells were used to test for aspecific binding of the antibodies. […] Detection of bound anti-citrulline antibodies was performed by incubating the wells with rabbit anti-human HRP (1:2000) for 1 hour at RT followed by incubation with TMB substrate. The resulting OD (y-axis) is a measure for antibody binding.

[2] = target: T2, peptide no. 5 (human histone 2A) (human, also: biotin-labelled); test: ELISA, Ab 0.0032 ug/well
T2 construct: also called peptide 5
T2 peptide: VGRVH[Cit]LLRKGN
Protocol: as §1

CFC-1 [3] = target: T3, CFC-1; test: ELISA, Ab 0.0032 ug/well
T3 construct: Positive control for anti-citrulline reactivity; also called cfc1 XG; Cfc1-peptide
Protocol: as §1

[4] = target: T4, peptide no. 10 (human histone 2A) (human, also: biotin-labelled); test: ELISA, Ab 0.0032 ug/well
T4 construct: also called peptide 10
T4 peptide: TRIIP[Cit]HLQLAI
Protocol: as §1

[5] = target: T5, peptide no. 11 (human histone 2A) (human, also: biotin-labelled); test: ELISA, Ab 0.0032 ug/well
T5 construct: also called peptide 11
T5 peptide: LQLAI[Cit]NDEELN
Protocol: as §1

[6] = target: T6, peptide no. 1 (human histone 2A) (human, also: biotin-labelled); test: ELISA, Ab 0.0032 ug/well
T6 construct: also called peptide 1; AAASGXGKQGGK
T6 peptide: AAASG[Cit]GKQGGK
Protocol: as §1

[7] = target: T7, peptide no. 4 (human histone 2A) (human, also: biotin-labelled); test: ELISA, Ab 0.0032 ug/well
T7 construct: also called peptide 4
T7 peptide: QFPVG[Cit]VHRLLR
Protocol: as §1

[8] = target: T8, peptide no. 12 (human histone 2A) (human, also: biotin-labelled); test: ELISA, Ab 0.0032 ug/well
T8 construct: also called peptide 12
T8 peptide: NKLLG[Cit]VTIAQG
Protocol: as §1

[9] = target: T9, peptide no. 8 (human histone 2A) (human, also: biotin-labelled); test: ELISA, Ab 0.0032 ug/well
T9 construct: also called peptide 8
T9 peptide: AGNAA[Cit]DNKKTR
Protocol: as §1

[10] = target: T1, peptide no. 7 (human histone 2A); test: ELISA, Ab 0.00064 ug/well
Protocol: as §1

[11] = target: T2, peptide no. 5 (human histone 2A); test: ELISA, Ab 0.00064 ug/well
Protocol: as §1

[12] = target: T10, huPAD2-deiminated human recombinant histone 2A (human); test: ELISA, Ab 0.0032 ug/well
T10 construct: also called H2A/p2; histone 2A/p2
Description: (§2) The resulting OD (y-axis) is a measure for antibody binding. H1-recombinant histone 1; H1/p2-huPAD2 recombinant histone 1; H1/p4-huPAD4 recombinant histone 1, and so forth (x-axis).

[13] = target: T11, human recombinant histone 2B (human); test: ELISA, Ab 0.0032 ug/well
T11 construct: Non-deiminated; also called H2B
Description: as §2

CFC-1 [14] = target: T3, CFC-1; test: ELISA, Ab 0.0032 ug/well; remark: listed apart in the source
Description: as §2

[15] = target: T12, huPAD2-deiminated human recombinant histone 3 (human); test: ELISA, Ab 0.0032 ug/well
T12 construct: also called H3/p2; histone 3/p2
Description: as §2

[16] = target: T13, human recombinant histone 4 (human, UniProt P62805 2-103); test: ELISA, Ab 0.0032 ug/well
Description: as §2

[17] = target: T14, huPAD4-deiminated human recombinant histone 2B (human); test: ELISA, Ab 0.0032 ug/well
T14 construct: also called H2B/p4
Description: as §2

[18] = target: T15, huPAD2-deiminated human recombinant histone 2B (human); test: ELISA, Ab 0.0032 ug/well
T15 construct: also called H2B/p2
Description: as §2

[19] = target: T16, huPAD4-deiminated human recombinant histone 3 (human); test: ELISA, Ab 0.0032 ug/well
T16 construct: also called H3/p4
Description: as §2

[20] = target: T17, huPAD4-deiminated human recombinant histone 2A (human); test: ELISA, Ab 0.0032 ug/well
T17 construct: also called H2A/p4; histone 2A/p4
Description: as §2

[21] = target: T10, huPAD2-deiminated human recombinant …; test: ELISA, Ab 0.016 ug/well
Description: as §2

[22] = target: T11, human recombinant histone 2B; test: ELISA, Ab 0.016 ug/well
Description: as §2

CFC-1 [23] = target: T3, CFC-1; test: ELISA, Ab 0.016 ug/well
Description: as §2

[24] = target: T12, huPAD2-deiminated human recombinant …; test: ELISA, Ab 0.016 ug/well
Description: as §2

[25] = target: T13, human recombinant histone 4; test: ELISA, Ab 0.016 ug/well
Description: as §2

[26] = target: T18, human recombinant histone 2A (human); test: ELISA, Ab 0.016 ug/well
T18 construct: Non-deiminated; also called H2A
Description: as §2

[27] = target: T14, huPAD4-deiminated human recombinant …; test: ELISA, Ab 0.016 ug/well
Description: as §2

[28] = target: T15, huPAD2-deiminated human recombinant …; test: ELISA, Ab 0.016 ug/well
Description: as §2

[29] = target: T16, huPAD4-deiminated human recombinant …; test: ELISA, Ab 0.016 ug/well
Description: as §2

[30] = target: T17, huPAD4-deiminated human recombinant …; test: ELISA, Ab 0.016 ug/well
Description: as §2

B1: RhmAb2.102 (antibody, human IgG1, lambda)
heavy: not shown
light: QSVLTQPPSMSAAPGQKVTISCSGSSSNIGNNYVSWYQQVPGTAPKLLIYDDNKRPSGIPGRFSGSKSATSATLGITGLQAGDEADYYCGSWDDNLSVVLFGGGTKLTVLGQPKAAPSVTLFPPSSEELQANKATLVCLISDFYPGAVTVAWKADSSPVKAGVETTTPSKQSNNKYAASSYLSLTPEQWKSHRSYSCQVTHEGSTVEKTVAPTECS
notes: Human IgG1 lambda; also called Rhm2.102
OD [1]: 0.064 OD450
OD [2]: 0.063 OD450
OD (CFC-1 [3]): 0.916 OD450
OD [4]: 0.068 OD450
OD [5]: 0.057 OD450
OD [6]: 0.3 OD450
OD [7]: 0.078 OD450
OD [8]: 0.059 OD450
OD [9]: 0.06 OD450
OD [10]: 0.057 OD450
OD [11]: 0.067 OD450
OD [12]: 0.161 OD450
OD [13]: 0.05 OD450
OD (CFC-1 [14]): 0.178 OD450
OD [15]: 0.08 OD450
OD [16]: 0.06 OD450
OD [17]: 0.052 OD450
OD [18]: 0.052 OD450
OD [19]: 0.065 OD450
OD [20]: 0.135 OD450
OD [21]: 0.628 OD450
OD [22]: 0.065 OD450
OD (CFC-1 [23]): 0.702 OD450
OD [24]: 0.155 OD450
OD [25]: 0.061 OD450
OD [26]: 0.057 OD450
OD [27]: 0.052 OD450
OD [28]: 0.052 OD450
OD [29]: 0.076 OD450
OD [30]: 0.426 OD450
